The results in this text go back to paper PMC12247212 (RSC Chemical Biology, 2025).

The target of experiment [1] is T1, CD16a-mMBP (Homo sapiens, allotype  …, UniProt P08637).
T1 construct: monovalent antigen; MW ~63 kDa; also called CD16a (FCGR3A); FcγRIIIa; source: Expi293F, transfected (pcDNA3.4 without SpyTag003), harvested 6 days post-transfection, purified
In words: BLI; SpyBLI single-cycle kinetics, Octet-K2; SpyTagged nanobody or scFv loaded from crude mammalian cell supernatant (1:1 with PBS + 0.05% Tween-20) onto biotinylated SpyCatcher003 S49C on streptavidin sensors; purified antigen as analyte at five increasing concentrations; 30 °C, 1000 rpm, PBS pH 7.5, 0.05% Tween-20; 1:1 standard model (1:1 partial dissociation model for Nb24); averages of three independent …. The following applies: one partner purified. In general terms: BLI is a label-free optical method that tracks binding on a fibre tip over time.

Experiment [2] has as its target T1, CD16a-mMBP. As to the kind of experiment: BLI; SpyBLI single-cycle kinetics, Octet-K2; purified SpyTagged nanobody or scFv loaded at 100 nM onto biotinylated SpyCatcher003 S49C on streptavidin sensors; purified antigen as analyte at five increasing concentrations; 30 °C, 1000 rpm, PBS pH 7.5, 0.05% Tween-20; 1:1 standard model (1:1 partial dissociation model for Nb24); averages of three independent experiments. The note with it: both partners purified.

Experiment [3] addresses T1, CD16a-mMBP. In words: BLI; SpyBLI single-cycle kinetics, Octet-K2; SpyTagged nanobody or scFv loaded from cell-free reaction blend (diluted 100-fold in PBS + 0.05% Tween-20) onto biotinylated SpyCatcher003 S49C on streptavidin sensors; purified antigen as analyte at five increasing concentrations; 30 °C, 1000 rpm, PBS pH 7.5, 0.05% Tween-20; 1:1 standard model (1:1 partial dissociation model for Nb24); averages of three independent …. The note with it: one partner purified.

Another experiment has as its target T2, hen egg-white lysozyme (Gallus gallus, UniProt P00698).
T2 construct: lysozyme from chicken egg-white, Sigma-Aldrich 62971; also called Lysozyme from chicken egg-white; source: bought: Sigma-Aldrich (62971); further purified by SEC (Superdex 75 Increase)
The experiment is described as above. The following applies: one partner purified.

In experiment [4] the target is T3, β2-microglobulin (Homo sapiens (assumed), UniProt P61769).
T3 construct: β2-microglobulin, recombinant; MW ~12 kDa
As to the kind of experiment: BLI; SpyBLI single-cycle kinetics, Octet-K2; SpyTagged nanobody or scFv loaded from crude mammalian cell supernatant (1:1 with PBS + 0.05% Tween-20) onto biotinylated SpyCatcher003 S49C on streptavidin sensors; purified antigen as analyte at five increasing concentrations; 30 °C, 1000 rpm, PBS pH 7.5, 0.05% Tween-20; 1:1 standard model (1:1 partial dissociation model for Nb24); averages of three independent …. The note with it: one partner purified.

Experiment [5] addresses T3, β2-microglobulin. As to the kind of experiment: BLI; SpyBLI single-cycle kinetics, Octet-K2; purified SpyTagged nanobody or scFv loaded at 100 nM onto biotinylated SpyCatcher003 S49C on streptavidin sensors; purified antigen as analyte at five increasing concentrations; 30 °C, 1000 rpm, PBS pH 7.5, 0.05% Tween-20; 1:1 standard model (1:1 partial dissociation model for Nb24); averages of three independent experiments. The note with it: both partners purified.

In experiment [6] the target is T3, β2-microglobulin. As to the kind of experiment: BLI; SpyBLI single-cycle kinetics, Octet-K2; SpyTagged nanobody or scFv loaded from cell-free reaction blend (diluted 100-fold in PBS + 0.05% Tween-20) onto biotinylated SpyCatcher003 S49C on streptavidin sensors; purified antigen as analyte at five increasing concentrations; 30 °C, 1000 rpm, PBS pH 7.5, 0.05% Tween-20; 1:1 standard model (1:1 partial dissociation model for Nb24); averages of three independent …. The note with it: one partner purified.

T3 sequence (P61769 21-119): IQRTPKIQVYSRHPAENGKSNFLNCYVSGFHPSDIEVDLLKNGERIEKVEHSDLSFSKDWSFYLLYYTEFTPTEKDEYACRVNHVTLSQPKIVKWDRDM
T2 sequence (P00698 19-147): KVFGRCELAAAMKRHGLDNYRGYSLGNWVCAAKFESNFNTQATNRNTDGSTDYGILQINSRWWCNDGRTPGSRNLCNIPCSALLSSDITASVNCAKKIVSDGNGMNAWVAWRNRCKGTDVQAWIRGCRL
T1 sequence (P08637 17-254): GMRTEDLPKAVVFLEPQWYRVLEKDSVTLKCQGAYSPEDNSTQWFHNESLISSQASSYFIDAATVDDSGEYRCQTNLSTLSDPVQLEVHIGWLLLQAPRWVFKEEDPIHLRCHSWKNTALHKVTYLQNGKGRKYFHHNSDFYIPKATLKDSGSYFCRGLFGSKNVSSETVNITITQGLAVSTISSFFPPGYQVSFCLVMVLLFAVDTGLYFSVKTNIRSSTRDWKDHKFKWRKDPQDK

B1: anti-CD16a scFv, SpyTagged (mammalian expression) (scFv, V domains shown)
VH: EVQLVQSGAEVKKPGESLKVSCKASGYTFTSYYMHWVRQAPGQGLEWMGAIEPMYGSTSYAQKFQGRVTMTRDTSTSTVYMELSSLRSEDTAVYYCARGSAYYYDFADYWGQGTLVTVSS
VL: SYVLTQPSSVSVAPGQTATISCGGHNIGSKNVHWYQQRPGQSPVLVIYQDNKRPSGIPERFSGSNSGNTATLTISGTQAMDEADYYCQVWDNYSVLFGGGTKLTVL
notes: scFv of the FcγRIIIa-targeting arm of RO7297089; (G3S)2 linker between the scFv and SpyTag003; also called FcγRIIIa-targeting arm of the bispecific antibody RO7297089; source: Expi293F, transfected (pcDNA3.4); purified (His Mag Sepharose Excel, SEC) or used directly as crude mammalian cell supernatant; not shown: SpyTag003 (after a (G3S)2 linker), C-terminal, kept
With B1, in the experiment with CD16a-mMBP [1], the Kd amounted to 4.3 nM, the koff stood at 0.00081 s⁻¹ and the kon turned out to be 187000 M⁻¹ s⁻¹. For the same molecule, in the experiment with CD16a-mMBP [2], the affinity, expressed as Kd, was 6.7 nM; the koff stood at 0.00113 s⁻¹; the on-rate constant (kon) was found to be 171000 M⁻¹ s⁻¹.

B2: anti-CD16a scFv, SpyTagged (cell-free expression) (scFv, V domains shown)
VH: B1 VH
VL: B1 VL
notes: as the scFv of m3; The cell-free fragment design has an optional His-tag; not shown: SpyTag003 (after a (G3S)2 linker), C-terminal, kept
As for B2, in the experiment with CD16a-mMBP [3], the Kd turned out to be 8.1 nM, the koff is 0.0018 s⁻¹ and the association rate constant (kon) is 220000 M⁻¹ s⁻¹.

B3: cAb-Lys3, SpyTagged nanobody (VHH)
VHH: DVQLQASGGGSVQAGGSLRLSCAASGYTIGPYCMGWFRQAPGKEREGVAAINMGGGITYYADSVKGRFTISQDNAKNTVYLLMNSLEPEDTAIYYCAADSTIYASYYECGHGLSTGGYGYDSWGQGTQVTVSS
notes: nanobody cAb-Lys3; The cell-free fragment design has an optional His-tag; also called Nb cAb-Lys3; not shown: SpyTag003 (after a (G3S)2 linker), C-terminal, kept
On to B3, for which, in the experiment with hen egg-white lysozyme, the dissociation constant (Kd) was found to be 0.67 nM, the off-rate (koff) was determined as 0.00116 s⁻¹ and the kon worked out at 1.7e+06 M⁻¹ s⁻¹.

B4: Nb24, SpyTagged nanobody (mammalian expression) (VHH)
VHH: QVQLQESGGGSVQAGGSLRLSCAASGYTDSRYCMAWFRQAPGKEREWVARINSGRDITYYADSVKGRFTFSQDNAKNTVYLQMDSLEPEDTATYYCATDIPLRCRDIVAKGGDGFRYWGQGTQVTVSS
notes: nanobody Nb24; (G3S)2 linker between the nanobody and SpyTag003; Covalently captured on biotinylated SpyCatcher003 S49C on streptavidin sensors; also called anti-β2-microglobulin nanobody Nb24; Nb24-SpyTag003; source: Expi293F, transfected (pcDNA3.4); purified (His Mag Sepharose Excel, SEC) or used directly as crude mammalian cell supernatant; not shown: SpyTag003 (after a (G3S)2 linker), …
For the molecule B4, in the experiment with β2-microglobulin [4], the Kd was found to be 50 nM, the koff was determined as 0.0114 s⁻¹ and the kon was found to be 240000 M⁻¹ s⁻¹. Further, in the experiment with β2-microglobulin [5], the Kd was 49.6 nM, the koff stood at 0.0112 s⁻¹ and the kon stood at 230000 M⁻¹ s⁻¹.

B5: Nb24, SpyTagged nanobody (cell-free expression) (VHH)
VHH: B4 VHH
notes: nanobody Nb24; as the VHH of m1; The cell-free fragment design has an optional His-tag; also called Nb24-SpyTag003; not shown: SpyTag003 (after a (G3S)2 linker), C-terminal, kept
Regarding B5, in the experiment with β2-microglobulin [6], the Kd came to 63.8 nM, the koff turned out to be 0.014 s⁻¹ and the kon was 220000 M⁻¹ s⁻¹.

The Kd is the concentration at which binding is half-saturated. The term koff denotes the rate constant with which the complex falls apart. The term kon denotes the second-order rate constant of association.
